From US7413873

Biological target: full length TCF1
Experiment: cell-based or functional assay

Chain of β-catenin (wild type) (P35222 2-781): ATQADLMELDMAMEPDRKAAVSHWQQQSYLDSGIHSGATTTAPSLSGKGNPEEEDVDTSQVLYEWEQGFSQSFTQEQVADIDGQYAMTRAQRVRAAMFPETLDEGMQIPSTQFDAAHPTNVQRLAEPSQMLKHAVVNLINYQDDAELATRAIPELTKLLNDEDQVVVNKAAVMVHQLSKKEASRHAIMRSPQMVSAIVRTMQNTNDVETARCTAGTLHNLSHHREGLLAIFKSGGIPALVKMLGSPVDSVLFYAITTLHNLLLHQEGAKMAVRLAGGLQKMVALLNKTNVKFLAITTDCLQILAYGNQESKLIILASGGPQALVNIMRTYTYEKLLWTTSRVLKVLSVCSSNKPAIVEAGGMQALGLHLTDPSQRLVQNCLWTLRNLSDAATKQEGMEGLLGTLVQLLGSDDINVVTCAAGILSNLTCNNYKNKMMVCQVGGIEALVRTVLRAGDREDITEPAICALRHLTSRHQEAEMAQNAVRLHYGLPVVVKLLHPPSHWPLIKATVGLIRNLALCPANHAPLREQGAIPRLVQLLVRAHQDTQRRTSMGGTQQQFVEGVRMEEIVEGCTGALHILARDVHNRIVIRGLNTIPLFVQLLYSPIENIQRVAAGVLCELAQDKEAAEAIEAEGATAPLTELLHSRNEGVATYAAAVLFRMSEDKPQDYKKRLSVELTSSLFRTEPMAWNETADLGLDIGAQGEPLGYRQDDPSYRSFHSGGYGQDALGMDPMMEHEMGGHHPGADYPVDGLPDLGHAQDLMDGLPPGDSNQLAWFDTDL

activation of luciferase reporter gene driven by the LEF1 promoter (-672, +305), co-transfection in 2017 T lymphocytes: 7 fold
Substance: β-catenin (wild type)
